The source of these data is article PMC5976803.

Common to all, as to assay: proteoliposome ELISA
Holding throughout (details): chain shown with the change;; parent: est. 1.0; read off a plot
Background: An ELISA detects its analyte on a solid surface through an enzyme-linked reagent.

Test [1] has as its target T1, anti-CLDN-5 ECR mAb clone 1B3.
T1 chain 1: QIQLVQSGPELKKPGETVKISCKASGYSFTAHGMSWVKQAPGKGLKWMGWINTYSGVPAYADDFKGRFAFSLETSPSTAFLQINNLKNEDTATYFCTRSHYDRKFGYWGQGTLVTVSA
T1 chain 2: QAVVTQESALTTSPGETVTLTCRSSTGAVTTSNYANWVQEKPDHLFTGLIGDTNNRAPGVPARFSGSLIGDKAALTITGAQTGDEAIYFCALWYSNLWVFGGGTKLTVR

In test [2] the target is anti-CLDN-5 ECR mAb clone 1D1.
Test [3] has as its target anti-CLDN-5 ECR mAb clone 2B1.
The target of test [4] is anti-CLDN-5 ECR mAb clone 2B12.
Sequence of anti-CLDN-5 ECR mAb clone 2B12 (chain, as listed by the source, chain 1 of 2): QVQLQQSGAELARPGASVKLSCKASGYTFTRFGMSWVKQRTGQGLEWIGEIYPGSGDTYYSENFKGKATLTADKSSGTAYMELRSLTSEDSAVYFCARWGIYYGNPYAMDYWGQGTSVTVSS
Sequence of anti-CLDN-5 ECR mAb clone 2B12 (chain, as listed by the source, chain 2 of 2): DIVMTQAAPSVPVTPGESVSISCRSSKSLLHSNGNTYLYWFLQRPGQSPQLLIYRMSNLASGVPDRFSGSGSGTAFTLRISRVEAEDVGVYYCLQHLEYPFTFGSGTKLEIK

Sequence of anti-CLDN-5 ECR mAb clone 1D1 (chain, as listed by the source, chain 1 of 2): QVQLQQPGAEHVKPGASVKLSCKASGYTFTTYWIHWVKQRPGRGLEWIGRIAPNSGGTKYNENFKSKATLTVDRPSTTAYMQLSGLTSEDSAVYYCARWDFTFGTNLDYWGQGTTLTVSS
Sequence of anti-CLDN-5 ECR mAb clone 1D1 (chain, as listed by the source, chain 2 of 2): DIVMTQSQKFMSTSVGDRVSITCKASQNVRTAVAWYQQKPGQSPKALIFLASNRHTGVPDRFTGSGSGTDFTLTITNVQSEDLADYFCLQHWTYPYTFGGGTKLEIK
Sequence of anti-CLDN-5 ECR mAb clone 2B1 (chain, as listed by the source, chain 1 of 2): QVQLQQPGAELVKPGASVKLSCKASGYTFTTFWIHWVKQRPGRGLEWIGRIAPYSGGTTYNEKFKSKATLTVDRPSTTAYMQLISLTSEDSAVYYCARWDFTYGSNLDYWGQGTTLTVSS
Sequence of anti-CLDN-5 ECR mAb clone 2B1 (chain, as listed by the source, chain 2 of 2): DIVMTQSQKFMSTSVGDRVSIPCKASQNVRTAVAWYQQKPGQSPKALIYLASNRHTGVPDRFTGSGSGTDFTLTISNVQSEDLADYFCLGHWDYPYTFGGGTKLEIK

B1: AGIA-tagged human CLDN-5, cell-free synthesized proteoliposome, O00501 Q156A (protein)
chain: MGSAALEILGLVLCLVGWGGLILACGLPMWQVTAFLDHNIVTAQTTWKGLWMSCVVQSTGHMQCKVYDSVLALSTEVQAARALTVSAVLLAFVALFVTLAGAQCTTCVAPGPAKARVALTGGVLYLFCGLLALVPLCWFANIVVREFYDPSVPVSAKYELGAALYIGWAATALLMVGGCLLCCGAWVCTGRPDLSFPVKYSAPRRPTATGDYDKKNYV
In the case of B1, the ratio to parent in test [1] was 1.2; in test [2] it was 0.88; in test [3], 0.55; in test [4], 0.94.

B2: AGIA-tagged human CLDN-5, cell-free synthesized proteoliposome, O00501 S155A (protein)
chain: MGSAALEILGLVLCLVGWGGLILACGLPMWQVTAFLDHNIVTAQTTWKGLWMSCVVQSTGHMQCKVYDSVLALSTEVQAARALTVSAVLLAFVALFVTLAGAQCTTCVAPGPAKARVALTGGVLYLFCGLLALVPLCWFANIVVREFYDPSVPVAQKYELGAALYIGWAATALLMVGGCLLCCGAWVCTGRPDLSFPVKYSAPRRPTATGDYDKKNYV
Take B2: the ratio to parent came out at 1.3 in test [1], 0.86 in test [2], 0.84 in test [3] and 0.99 in test [4].

B3: AGIA-tagged human CLDN-5, cell-free synthesized proteoliposome, O00501 S151A (protein)
chain: MGSAALEILGLVLCLVGWGGLILACGLPMWQVTAFLDHNIVTAQTTWKGLWMSCVVQSTGHMQCKVYDSVLALSTEVQAARALTVSAVLLAFVALFVTLAGAQCTTCVAPGPAKARVALTGGVLYLFCGLLALVPLCWFANIVVREFYDPAVPVSQKYELGAALYIGWAATALLMVGGCLLCCGAWVCTGRPDLSFPVKYSAPRRPTATGDYDKKNYV
As for B3, the ratio to parent in test [1] was 0.75; in test [2] it was 0.1; in test [3], 0.14; in test [4] it was 0.03.

B4: AGIA-tagged human CLDN-5, cell-free synthesized proteoliposome, O00501 P150A (protein)
chain: MGSAALEILGLVLCLVGWGGLILACGLPMWQVTAFLDHNIVTAQTTWKGLWMSCVVQSTGHMQCKVYDSVLALSTEVQAARALTVSAVLLAFVALFVTLAGAQCTTCVAPGPAKARVALTGGVLYLFCGLLALVPLCWFANIVVREFYDASVPVSQKYELGAALYIGWAATALLMVGGCLLCCGAWVCTGRPDLSFPVKYSAPRRPTATGDYDKKNYV
Consider B4, for which the ratio to parent in test [1] came to 1.8; in test [2], 0.26; in test [3], 0.27; in test [4], 0.13.

B5: AGIA-tagged human CLDN-5, cell-free synthesized proteoliposome, O00501 Y148A (protein)
chain: MGSAALEILGLVLCLVGWGGLILACGLPMWQVTAFLDHNIVTAQTTWKGLWMSCVVQSTGHMQCKVYDSVLALSTEVQAARALTVSAVLLAFVALFVTLAGAQCTTCVAPGPAKARVALTGGVLYLFCGLLALVPLCWFANIVVREFADPSVPVSQKYELGAALYIGWAATALLMVGGCLLCCGAWVCTGRPDLSFPVKYSAPRRPTATGDYDKKNYV
With B5, the ratio to parent in test [1] worked out at 0.17; in test [2], 1.3; in test [3] it was 1.1; in test [4], 0.75.

B6: AGIA-tagged human CLDN-5, cell-free synthesized proteoliposome, O00501 V152A (protein)
chain: MGSAALEILGLVLCLVGWGGLILACGLPMWQVTAFLDHNIVTAQTTWKGLWMSCVVQSTGHMQCKVYDSVLALSTEVQAARALTVSAVLLAFVALFVTLAGAQCTTCVAPGPAKARVALTGGVLYLFCGLLALVPLCWFANIVVREFYDPSAPVSQKYELGAALYIGWAATALLMVGGCLLCCGAWVCTGRPDLSFPVKYSAPRRPTATGDYDKKNYV
In the case of B6, the ratio to parent in test [1] is 0.25; in test [2], 1.6; in test [3] it was 1.2; in test [4] it was 0.39.

B7: AGIA-tagged human CLDN-5, cell-free synthesized proteoliposome, O00501 D149A (protein)
chain: MGSAALEILGLVLCLVGWGGLILACGLPMWQVTAFLDHNIVTAQTTWKGLWMSCVVQSTGHMQCKVYDSVLALSTEVQAARALTVSAVLLAFVALFVTLAGAQCTTCVAPGPAKARVALTGGVLYLFCGLLALVPLCWFANIVVREFYAPSVPVSQKYELGAALYIGWAATALLMVGGCLLCCGAWVCTGRPDLSFPVKYSAPRRPTATGDYDKKNYV
Regarding B7, the ratio to parent in test [1] amounted to 0.17; in test [2], 0.06; in test [3] it was 0.11; in test [4], 0.03.

B8: AGIA-tagged human CLDN-5, cell-free synthesized proteoliposome, O00501 F147A (protein)
chain: MGSAALEILGLVLCLVGWGGLILACGLPMWQVTAFLDHNIVTAQTTWKGLWMSCVVQSTGHMQCKVYDSVLALSTEVQAARALTVSAVLLAFVALFVTLAGAQCTTCVAPGPAKARVALTGGVLYLFCGLLALVPLCWFANIVVREAYDPSVPVSQKYELGAALYIGWAATALLMVGGCLLCCGAWVCTGRPDLSFPVKYSAPRRPTATGDYDKKNYV
In the case of B8, the ratio to parent worked out at 2.4 in test [1], 1.5 in test [2], 1.1 in test [3] and 1.3 in test [4].

B9: AGIA-tagged human CLDN-5, cell-free synthesized proteoliposome, O00501 E146A (protein)
chain: MGSAALEILGLVLCLVGWGGLILACGLPMWQVTAFLDHNIVTAQTTWKGLWMSCVVQSTGHMQCKVYDSVLALSTEVQAARALTVSAVLLAFVALFVTLAGAQCTTCVAPGPAKARVALTGGVLYLFCGLLALVPLCWFANIVVRAFYDPSVPVSQKYELGAALYIGWAATALLMVGGCLLCCGAWVCTGRPDLSFPVKYSAPRRPTATGDYDKKNYV
Consider B9, for which the ratio to parent in test [1] was 0.49; in test [2], 0.26; in test [3], 0.25; in test [4] it was 0.36.

B10: AGIA-tagged human CLDN-5, cell-free synthesized proteoliposome, O00501 V154A (protein)
chain: MGSAALEILGLVLCLVGWGGLILACGLPMWQVTAFLDHNIVTAQTTWKGLWMSCVVQSTGHMQCKVYDSVLALSTEVQAARALTVSAVLLAFVALFVTLAGAQCTTCVAPGPAKARVALTGGVLYLFCGLLALVPLCWFANIVVREFYDPSVPASQKYELGAALYIGWAATALLMVGGCLLCCGAWVCTGRPDLSFPVKYSAPRRPTATGDYDKKNYV
Take B10: the ratio to parent in test [1] was found to be 1.2; in test [2], 1.3; in test [3], 1.1; in test [4], 0.87.

B11: AGIA-tagged human CLDN-5, cell-free synthesized proteoliposome, O00501 P153A (protein)
chain: MGSAALEILGLVLCLVGWGGLILACGLPMWQVTAFLDHNIVTAQTTWKGLWMSCVVQSTGHMQCKVYDSVLALSTEVQAARALTVSAVLLAFVALFVTLAGAQCTTCVAPGPAKARVALTGGVLYLFCGLLALVPLCWFANIVVREFYDPSVAVSQKYELGAALYIGWAATALLMVGGCLLCCGAWVCTGRPDLSFPVKYSAPRRPTATGDYDKKNYV
Regarding B11, the ratio to parent in test [1] is 0.19; in test [2] it was 0.13; in test [3] it was 0.14; in test [4], 0.08.
